Assay results reported in article PMC10204293, “S100A6 inhibits MDM2 to suppress breast cancer growth and enhance sensitivity to chemotherapy” (Breast Cancer Research : BCR, 2023).

Target: T1, HA-MDM2 full-length (1–491) (human, UniProt Q00987 1-491)
T1 construct: Cloned into a T7 promotor-HA expression vector; also called HA-tagged full-length MDM2; source: E. coli BL21 (DE3), purified (His-tag purification kit)
Experiment: pull-down; about 100 µg of a mixture of GST, GST-S100A6 or its fragments with HA-MDM2 or its fragments on 100 µL glutathione agarose, overnight at 4 °C; blot with anti-HA
Conditions: both partners purified

binding result | Binder
binds | GST-S100A6 EF-hand II (48–90) (domain or fragment, S100A6, human, EF-hand II, residues 48–90; also called C-terminal EF-hand of S100A6; source: E. coli BL21 (DE3), purified (GST-tag purification kit)) not shown
binds | GST-S100A6 EF-hand I (1–47) (domain or fragment, S100A6, human, EF-hand I, residues 1–47; also called N-terminal EF-hand of S100A6; source: E. coli BL21 (DE3), purified (GST-tag purification kit)) not shown
